Experimental data published in the Immune Epitope Database (IEDB).

Tests used:
Test in all cases: IEDB peptide-MHC binding, purified MHC/competitive/radioactivity; ≥ and ≤ were set here for values at or beyond the usual limits of such assays
HLA-A*02:01 = biological target: HLA-A*02:01
HLA-A*02:02 = biological target: HLA-A*02:02
HLA-A*02:03 = biological target: HLA-A*02:03
HLA-A*02:06 = biological target: HLA-A*02:06
HLA-A*68:02 = biological target: HLA-A*68:02
[1] = source organism: Vaccinia virus WR
[2] = source organism: Hepacivirus hominis
[3] = source organism: Mammarenavirus juninense
[4] = source organism: Influenza A virus
[5] = source organism: Mammarenavirus choriomeningitidis

| Sequence | IC50 (HLA-A*02:01; [1]) | IC50 (HLA-A*02:02; [1]) | IC50 (HLA-A*02:03; [1]) | IC50 (HLA-A*02:06; [1]) | IC50 (HLA-A*68:02; [1]) | other results |
| --- | --- | --- | --- | --- | --- | --- |
| ILPDKIDGL | 62 nM | 1 nM | 3.5 nM | 43 nM | 4000 nM | – |
| NIGCAVNTPV | 23 nM | 126 nM | 30 nM | 176 nM | 11 nM | – |
| LLALQQLEV | – | – | – | – | – | IC50 (HLA-A*02:01; source organism: SARS-CoV1): 1 nM; IC50 (HLA-A*02:02; source organism: SARS-CoV1): 0.14 nM; IC50 (HLA-A*02:03; source organism: SARS-CoV1): 0.29 nM; IC50 (HLA-A*02:06; source organism: SARS-CoV1): 42 nM; IC50 (HLA-A*68:02; source organism: SARS-CoV1): 83 nM |
| AVIPFDDIV | 915 nM | 313 nM | 241 nM | 42 nM | 903 nM | – |
| RTNDLTALL | 357 nM | 3.7 nM | 7.2 nM | 119 nM | 13 nM | – |
| YMLVLAEALI | – | – | – | – | – | IC50 (HLA-A*02:01; [2]): 152 nM; IC50 (HLA-A*02:02; [2]): 107 nM; IC50 (HLA-A*02:03; [2]): 228 nM; IC50 (HLA-A*02:06; [2]): 512 nM; IC50 (HLA-A*68:02; [2]): 974 nM |
| KLLIAILGPL | – | – | – | – | – | IC50 (HLA-A*02:01; [2]): 67 nM; IC50 (HLA-A*02:02; [2]): 12 nM; IC50 (HLA-A*02:03; [2]): 5.9 nM; IC50 (HLA-A*02:06; [2]): 12 nM; IC50 (HLA-A*68:02; [2]): 4230 nM |
| KSGLFQFFV | – | – | – | – | – | IC50 (HLA-A*02:01; [3]): 17 nM; IC50 (HLA-A*02:02; [3]): 23 nM; IC50 (HLA-A*02:03; [3]): 1560 nM; IC50 (HLA-A*02:06; [3]): 8.1 nM; IC50 (HLA-A*68:02; [3]): 201 nM |
| SLVITYCLV | 174 nM | 1690 nM | 201 nM | 270 nM | 1400 nM | – |
| ITDNGPMPYM | 473 nM | 828 nM | 1180 nM | 303 nM | 473 nM | – |
| YVILKDPRI | 778 nM | 1550 nM | 203 nM | 12 nM | 847 nM | – |
| NTDHPLSINV | 307 nM | 388 nM | 583 nM | 1.6 nM | 0.67 nM | – |
| TLLNETAKV | 28 nM | 246 nM | 83 nM | 11 nM | 1670 nM | – |
| FVLALYSPPL | 979 nM | 2.2 nM | 38 nM | 212 nM | 263 nM | – |
| AMLKSKNINI | 175 nM | 1650 nM | 223 nM | 200 nM | 4740 nM | – |
| MLTNAISSRV | 208 nM | 53 nM | 0.11 nM | 224 nM | 101 nM | – |
| YMVTDKTAYI | 4.8 nM | 0.23 nM | 0.28 nM | 6.1 nM | 1.5 nM | – |

| Sequence | IC50 (HLA-A*02:01; [1]) | IC50 (HLA-A*02:02; [1]) | IC50 (HLA-A*02:03; [1]) | IC50 (HLA-A*02:06; [1]) | IC50 (HLA-A*68:02; [1]) | other results |
| --- | --- | --- | --- | --- | --- | --- |
| ALVCYIVMPV | – | – | – | – | – | IC50 (HLA-A*02:01; source organism: SARS-CoV1): 5.6 nM; IC50 (HLA-A*02:02; source organism: SARS-CoV1): 1.2 nM; IC50 (HLA-A*02:03; source organism: SARS-CoV1): 4.4 nM; IC50 (HLA-A*02:06; source organism: SARS-CoV1): 2.9 nM; IC50 (HLA-A*68:02; source organism: SARS-CoV1): 88 nM |
| ALVSDCASTI | 72 nM | 94 nM | 52 nM | 240 nM | 530 nM | – |
| IVTFINDYA | 4320 nM | 140 nM | 2960 nM | 1150 nM | 84 nM | – |
| WLGAAITLVV | 123 nM | 20 nM | 78 nM | 1840 nM | 264 nM | – |
| LLMCAVHPEL | – | – | – | – | – | IC50 (HLA-A*02:01; [2]): 54 nM; IC50 (HLA-A*02:02; [2]): 25 nM; IC50 (HLA-A*02:03; [2]): 177 nM; IC50 (HLA-A*02:06; [2]): 442 nM; IC50 (HLA-A*68:02; [2]): 1350 nM |
| SVDVDIYDAV | 153 nM | 0.43 nM | 9.2 nM | 3.3 nM | 0.25 nM | – |
| DINESMSQMV | 158 nM | 312 nM | 488 nM | 4150 nM | 2070 nM | – |
| VMCGGSLYV | – | – | – | – | – | IC50 (HLA-A*02:01; source organism: SARS-CoV1): 0.39 nM; IC50 (HLA-A*02:02; source organism: SARS-CoV1): 0.61 nM; IC50 (HLA-A*02:03; source organism: SARS-CoV1): 7.5 nM; IC50 (HLA-A*02:06; source organism: SARS-CoV1): 6.8 nM; IC50 (HLA-A*68:02; source organism: SARS-CoV1): 2910 nM |
| YLSSVLLAL | – | – | – | – | – | IC50 (HLA-A*02:01; source organism: SARS-CoV1): 0.55 nM; IC50 (HLA-A*02:02; source organism: SARS-CoV1): 0.14 nM; IC50 (HLA-A*02:03; source organism: SARS-CoV1): 0.31 nM; IC50 (HLA-A*02:06; source organism: SARS-CoV1): 8.2 nM; IC50 (HLA-A*68:02; source organism: SARS-CoV1): 10 nM |
| LISLINSLV | 15 nM | 0.48 nM | 0.48 nM | 72 nM | 68 nM | – |
| MQIAILVTTV | – | – | – | – | – | IC50 (HLA-A*02:01; [4]): 79 nM; IC50 (HLA-A*02:02; [4]): 40 nM; IC50 (HLA-A*02:03; [4]): 6 nM; IC50 (HLA-A*02:06; [4]): 61 nM; IC50 (HLA-A*68:02; [4]): 129 nM |
| AVYNFATCGI | – | – | – | – | – | IC50 (HLA-A*02:01; [5]): 137 nM; IC50 (HLA-A*02:02; [5]): 25 nM; IC50 (HLA-A*02:03; [5]): 7.3 nM; IC50 (HLA-A*02:06; [5]): 25 nM; IC50 (HLA-A*68:02; [5]): 13 nM |
| VLIAGIILLI | 89 nM | 8.8 nM | 35 nM | 1020 nM | 33 nM | – |
| NITRLEVIGL | 424 nM | 907 nM | 95 nM | 197 nM | 301 nM | – |
| FQVDCFLWH | – | – | – | – | – | IC50 (HLA-A*02:01; [4]): 336 nM; IC50 (HLA-A*02:02; [4]): 216 nM; IC50 (HLA-A*02:03; [4]): 1260 nM; IC50 (HLA-A*02:06; [4]): 93 nM; IC50 (HLA-A*68:02; [4]): 3660 nM |
| FVTDYVHEGV | 48 nM | 24 nM | 1.7 nM | 11 nM | 1.6 nM | – |
| ILATLNTLIT | 443 nM | 7 nM | 12 nM | 629 nM | 1860 nM | – |
